# T1: Mcl-1, Q07820
# T1 chain: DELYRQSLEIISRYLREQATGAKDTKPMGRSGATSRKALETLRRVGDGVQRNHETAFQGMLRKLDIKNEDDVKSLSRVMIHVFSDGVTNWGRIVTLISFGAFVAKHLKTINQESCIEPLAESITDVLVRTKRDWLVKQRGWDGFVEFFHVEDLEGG
# T2: Bcl-w, Q92843
# T2 chain: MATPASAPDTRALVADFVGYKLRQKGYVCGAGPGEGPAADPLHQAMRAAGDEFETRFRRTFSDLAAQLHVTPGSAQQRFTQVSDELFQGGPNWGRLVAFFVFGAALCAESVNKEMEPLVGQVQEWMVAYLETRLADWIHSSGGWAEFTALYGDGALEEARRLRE
# T3: Bfl-1, Q16548
# T3 chain: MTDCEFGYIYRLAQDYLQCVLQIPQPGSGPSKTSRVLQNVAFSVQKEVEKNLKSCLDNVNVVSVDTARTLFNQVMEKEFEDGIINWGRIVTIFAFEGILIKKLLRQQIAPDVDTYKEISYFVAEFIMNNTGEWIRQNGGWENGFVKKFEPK
# Experiments:
# Assay in all cases: peptide SPOT array, c-Myc-tagged receptor at 1 uM or 100 nM, anti-c-Myc-Cy3
# Mcl-1, Q07820 = biological target: T1, Mcl-1, Q07820
# Bcl-2, P10415 = biological target: Bcl-2, P10415
# Sequence of Bcl-2, P10415 (P10415 1-217): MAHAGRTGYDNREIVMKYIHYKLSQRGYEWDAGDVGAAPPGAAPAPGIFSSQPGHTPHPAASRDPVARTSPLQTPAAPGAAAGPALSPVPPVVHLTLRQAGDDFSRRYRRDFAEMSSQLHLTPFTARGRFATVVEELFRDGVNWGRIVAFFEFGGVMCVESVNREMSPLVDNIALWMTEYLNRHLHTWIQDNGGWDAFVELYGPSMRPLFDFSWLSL
# Bcl-xL, Q07817 = biological target: Bcl-xL, Q07817
# Sequence of Bcl-xL, Q07817 (Q07817 1-209): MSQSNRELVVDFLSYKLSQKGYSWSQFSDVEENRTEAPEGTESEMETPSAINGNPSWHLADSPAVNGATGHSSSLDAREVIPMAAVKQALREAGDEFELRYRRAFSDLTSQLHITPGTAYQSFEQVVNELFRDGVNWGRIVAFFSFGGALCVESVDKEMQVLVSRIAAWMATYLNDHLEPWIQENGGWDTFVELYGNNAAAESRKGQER
# Bcl-w, Q92843 = biological target: T2, Bcl-w, Q92843
# Bfl-1, Q16548 = biological target: T3, Bfl-1, Q16548
"SPOT signal as a fraction of Bim BH3's signal on the same receptor and array (Mcl-1, Q07820)","SPOT signal as a fraction of Bim BH3's signal on the same receptor and array (Bcl-2, P10415)","SPOT signal as a fraction of Bim BH3's signal on the same receptor and array (Bcl-xL, Q07817)","SPOT signal as a fraction of Bim BH3's signal on the same receptor and array (Bcl-w, Q92843)","SPOT signal as a fraction of Bim BH3's signal on the same receptor and array (Bfl-1, Q16548)",Binder
0.02,0.01,0.02,0.02,0.02,EVKQSMSSQSLDKAAEDMPEAEQDLE [APBA1]
0.08,0.01,0.08,0.15,0.02,TNISWRACDHLRCIACDFLVVSYDDY [C8orf37]
0.04,0.01,0.04,0.02,0.03,LGDGPKLVRELFRVAEEHAPSIVFID [PSMC1]
0.03,0.01,0.04,0.02,0.04,PVGYLVESGRLSVMGCDVLKAVSDYF [MFI2]
0.02,0.01,0.04,0.04,0.04,EERAQNVTRLLRKQAEEVNTEWEKLN
0.03,0.02,0.04,0.03,0.03,RIEERKAIIGLYNYAHEMTHGASDRE [NCKAP1]
0.02,0.01,0.03,0.05,0.02,RDASKILVDALQKFADDMYSLYGGNA [ATP6AP2]
0.03,0.03,0.12,0.15,0.08,KRALIQCAKDIAKASDEVTRLAKEVA [VCL]
0.02,0.01,0.03,0.02,0.02,FSSDAVTSRVLLNVGQEVIAVVEENK [MOV10L1]
0.02,0.01,0.02,0.01,0.02,TIRNGHDSELLRSLAEELPLEQGFTI [PLCD4]
0.04,0.01,0.04,0.02,0.02,FVGCEFLHHLLREWGEELQAVLRSSQ [GEMIN4]
0.39,0.19,0.61,0.75,0.65,AIKPVSFIRDLKKIARHFRFGNQEDA [USP36]
0.06,0.05,0.19,0.07,0.11,CLKRCRSAQVLHLYGATYSADGEDRA [NLRP12]
0.13,0.1,0.19,0.18,0.38,FEKLRMIAKEIRHVGRMASVNMDPAL [RAPGEF2]
0.35,0.19,1.42,0.64,0.52,RAIPIKQGILLKRSGKSLNKEWKKKY [AGAP3]
0.17,0.01,0.035,0.03,0.02,DTIYQGFAECLIRLGDSMGRGGELET [NRN1L]
0.02,0.01,0.03,0.02,0.03,IGQRQTVVRTLNATGEEIIQQSSKTD
0.02,0.01,0.02,0.02,0.01,AEHEDDLPENLSEIADLWNSPTRTHG [CDH23]
0.07,0.03,0.15,0.09,0.08,FYRRRDISNTLIMLADKHAKEIEEES [MTA3]
0.02,0.01,0.03,0.02,0.02,FQQTISCPEGLRLVGSEVGDRTLPGW [IRF3]
0.02,0.01,0.05,0.09,0.05,TSQTEGLSRLLRQHAEDLNSGPLSKL [FES]
0.34,0.12,0.33,0.31,0.38,GFANHDVVEVLRNAGQVVHLTLVRRK [INADL]

# Reference: publication PMC4072508, “Genome-Wide Prediction and Validation of Peptides That Bind Human Prosurvival Bcl-2 Proteins” (PLoS Computational Biology, 2014)
